Patent US20140255304, “TDP-43 SPECIFIC BINDING MOLECULES” (BIOGEN IDEC INTERNALTIONAL NEUROSCIENCE GMBH, published 2014)

Biological target: TDP-43 full length (residues 1-414) (Homo sapiens, UniProt Q13148 SEQ:1-414)
Experiment: FP; at least 30-fold higher affinity than for U12 control; 40 mM HEPES, 0.5 M KCl, 0.4 M arginine, pH 7.4, 25 C
Conditions: tags: N-terminal 6xHis-SUMO, expressed in E. coli BL21(DE3) Star; label: 5' TYE fluorophore
Procedure: Equilibrium binding affinities of TDP-43 constructs for RNA were determined using fluorescence polarization. 5′TYETM fluorophore labeled RNA substrates, specific RNA (TYETM-[…]) (SEQ ID NO: 312) and RNA control (TYETM-[…]) (SEQ ID NO: 313) (integrated DNA Technologies), were incubated at a concentration of 5 nM for 30 min at 25° C. with TDP-43 (final concentrations 0 to 20 μM) in incubation buffer as indicated. Fluorescence polarization was measured with the plate reader fluorometer Envision (PerkinElmer) at each concentration of TDP-43 in a 96 well plate format with an excitation at 645 nm and emission at 665. Kds were calculated using the quadratic equation for tight binding (Morrison equation) using Sigmaplot (Systat Software Inc.). […] Stoichiometries were calculated by measuring the intercept of two straight lines, one fit using data points of the partially bound state, and the other using data points of the fully bound state.
The recombinant full-length TDP-43 was monomeric by sedimentation analysis (FIG. 8C) in buffer containing 400 mM arginine.

Sequence of TDP-43 full length (residues 1-414) (Q13148 whole entry, the tested form may be a part): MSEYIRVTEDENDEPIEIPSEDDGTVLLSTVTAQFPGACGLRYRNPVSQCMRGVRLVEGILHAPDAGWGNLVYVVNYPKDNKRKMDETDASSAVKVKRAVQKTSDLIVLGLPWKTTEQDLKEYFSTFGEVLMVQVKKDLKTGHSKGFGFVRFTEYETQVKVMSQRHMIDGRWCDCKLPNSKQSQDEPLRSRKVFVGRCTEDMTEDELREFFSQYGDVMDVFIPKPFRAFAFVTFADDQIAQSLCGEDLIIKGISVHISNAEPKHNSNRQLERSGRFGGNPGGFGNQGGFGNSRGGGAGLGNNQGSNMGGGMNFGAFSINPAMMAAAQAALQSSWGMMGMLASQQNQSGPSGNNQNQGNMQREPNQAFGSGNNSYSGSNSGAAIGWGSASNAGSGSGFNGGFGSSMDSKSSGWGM

B1: (UG)6 specific RNA (ssRNA)
RNA: UGUGUGUGUGUG
binding signal: ≥ 30 fold
